# Reference: patent US20210087291A1 (Hoffmann-La Roche, published 2021)
# Numbering of substitutions follows the chain as printed. Where two headings read alike, the source gives them in different places.
# B1: Tim3_0026 (antibody, V domains shown)
# VH: QIQLVQSGPELKKPGETVKISCKASGYTFTDYSMHWVKQAPGRGLKWMGYINTETYEPTFGADFKGRFAFSLDTSATTAYLQINSLKTEDTATFFCGGGGYPAYWGQGTVVIVSA
# VL: DVLMTQTPLSLPVSLGDQASISCRSSRTILHSSGNTYLEWYLQKPGQSPKLLIYKVSNRFSGVPDRFSGSGSGTDFTLNISRVEAEDLGVYYCFQDSHVPFTFGTGTKLEIK
# B2: 9D11 IgG (antibody, V domains shown)
# VH: QVQLVQSGAEVKKPGASVKVSCKASGYTFTSYYMHWVRQAPGQGLEWMGIINPSGGPTSYAQKFQGRVTMTRDTSTSTVYMELSSLRSEDTAVYYCARGDFAWLDYWGQGTLVTVSS
# VL: not shown
# notes: human IgG1
# B3: 36F2 IgG (antibody, V domains shown)
# VH: QVQLVQSGAEVKKPGASVKVSCKASGYTFTSYYMHWVRQAPGQGLEWMGIINPSGGSTSYAQKFQGRVTMTHDTSTSTVYMELSSLRSEDTAVYYCARSFFTGFHLDYWGQGTLVTVSS
# VL: EIVLTQSPGTLSLSPGERATLSCRASQSVSSSYLAWYQQKPGQAPRLLIYGASSRATGIPDRFSGSGSGTDFTLTISRLEPEDFAVYYCQQYTNEHYYTFGQGTKVEIK
# notes: human IgG1
# B4: Mov19 IgG (antibody, V domains shown)
# VH: QVQLQQSGAELVKPGASVKISCKASGYSFTGYFMNWVKQSHGKSLEWIGRIHPYDGDTFYNQNFKDKATLTVDKSSNTAHMELLSLTSEDFAVYYCTRYDGSRAMDYWGQGTTVTVSS
# VL: DIELTQSPASLAVSLGQRAIISCKASQSVSFAGTSLMHWYHQKPGQQPKLLIYRASNLEAGVPTRFSGSGSKTDFTLNIHPVEEEDAATYYCQQSREYPYTFGGGTKLEIK
# B5: 19E5 IgG (antibody, V domains shown)
# VH: QVQLVQSGAEVKKPGASVKVSCKASGYTFTSYYMHWVRQAPGQGLEWMGIINPSGGSTSYAQKFQGRVTMTRDTSTSTVYMELSSLRSEDTAVYYCARGEWRRYTSFDYWGQGTLVTVSS
# VL: QAVVTQEPSLTVSPGGTVTLTCGSSTGAVTTSNYANWVQEKPGQAFRGLIGGTNKRAPGTPARFSGSLLGGKAALTLSGAQPEDEAEYYCALWYSNLWVFGGGTKLTVL
# notes: human IgG1
# B6: 19A4 IgG (antibody, V domains shown)
# VH: B5 VH with E100G, R102I, Y104W, T105E, S106H
# VL: B5 VL
# notes: human IgG1
# B7: 20G6 IgG (antibody, V domains shown)
# VH: B5 VH with R102I, T105Y, S106H
# VL: B5 VL
# notes: human IgG1
# Experiments:
# [1] = molecular target: T1, cynomolgus TIM-3 on isolated cyno CD14+ monocytes (cynomolgus); assay: flow cytometry, cyno CD14+ monocytes cyno3
# T1 construct: whole, on cells
# Source text: (§1) CD14+ Monocytes were isolated from cynomolgus monkey anticoagulated peripheral blood (Covance) by density gradient centrifugation using Ficoll-Paque (GE Healthcare) (see General Protocols in the User Manuals or visit www.miltenyibiotec.com/protocols) and subsequent positive selection via NHP CD14 MicroBeads. First the CD14+ cells are magnetically labeled with CD14 MicroBeads. Then the cell suspension is loaded onto a MACS® Column which is placed in the magnetic field of a MACS Separator. The magnetically labeled CD14+ cells are retained in the column. The unlabeled cells run through, this cell fraction is depleted of CD14+ cells. After removal of the column from the magnetic field, the magnetically retained CD14+ cells can be eluted as the positively selected cell fraction. After centrifugation at 200×g for 10 min at room temperature the monocytes were harvested and used directly in binding assay or resuspended in freezing medium (10% DMSO, 90% FCS) at 1.0E+07 cells/ml and stored in liquid nitrogen.
# (§2) 1×10⁵ CD14+ isolated cyno monocytes (50 μl/well) were put into 98 well-v bottom MTP in fresh culture medium and incubated with Redimune® NF Liquid for 15 min at RT to block unspecific binding. Than 50 μl/well of Alexa488 labeled anti-TIM3 (10 μg/ml in cell culture medium) were added and incubated for 1 h at 4° C. After washing and centrifugation MFI signals of stained cells were analyzed by BD Biosciences FACSCanto flow cytometer.
# human TIM-3 on cells [2] = molecular target: T2, human TIM-3 on cells (human, UniProt Q8TDQ0 22-301); assay: flow cytometry, human CD14+ monocytes donor2
# T2 construct: also called CHO-Tim3; rec CHOK1 cells expressing huTIM-3
# human TIM-3 on cells [3] = molecular target: T2, human TIM-3 on cells; assay: flow cytometry, human CD14+ monocytes donor1
# Source text: (§3) CD14+ Monocytes were isolated from anticoagulated peripheral blood of healthy donors by density gradient centrifugation using Ficoll-Paque (GE Healthcare) (see General Protocols in the User Manuals or visit www.miltenyibiotec.com/protocols) and subsequent positive selection via CD14 MicroBeads. First the CD14+ cells are magnetically labeled with CD14 MicroBeads. Then the cell suspension is loaded onto a MACS® Column which is placed in the magnetic field of a MACS Separator. The magnetically labeled CD14+ cells are retained in the column. The unlabeled cells run through, this cell fraction is depleted of CD14+ cells. After removal of the column from the magnetic field, the magnetically retained CD14+ cells can be eluted as the positively selected cell fraction. After centrifugation at 200×g for 10 min at room temperature the monocytes were harvested and used directly in binding assay or resuspended in freezing medium (10% DMSO, 90% FCS) at 1.0E+07 cells/ml and stored in liquid nitrogen.
# (§4) 1×10⁵ CD14+ isolated human monocytes (50 μl/well) were put into 98 well-v bottom MTP in fresh culture medium and incubated with Redimune® NF Liquid for 15 min at RT to block unspecific binding. […] After washing and centrifugation MFI signals of stained cells were analyzed by BD Biosciences FACSCanto flow cytometer.
# Tim3-ECD-His-Biotin = molecular target: T3, Tim3-ECD-His-Biotin (human, UniProt Q8TDQ0 22-202); assay: ELISA on Tim3-ECD-His-Biotin
# T3 construct: also called human Tim3 (ELISA); Biochem Human
# Procedure: After washing (3×90 μl/well with PBST-buffer) 25 μl aTim3 samples or diluted (1:2 steps) reference antibody aTim3 F38-2E2 (Biolegend) was added and incubated 1 h at RT. After washing (3×90 μl/well with PBST-buffer) 25 μl/well sheep-anti-mouse-POD (GE NA9310V) was added in 1:9000 dilution and incubated at RT for 1 h while shaking at 400 rpm rotation. After washing (4×90 μl/well with PBST-buffer) 25 μl/well TMB substrate (Calbiochem, #CL07) was added and incubated until OD 1.5-2.5. Then the reaction was stopped by addition of 25 μl/well 1N HCL-solution.
# human TIM-3 on cells [4] = molecular target: T2, human TIM-3 on cells; assay: cell ELISA, CHO-K1 expressing human Tim3
# Procedure: Then the reaction was stopped by addition of 25 μl/well 1N HCL-solution.
# human TIM-3 on cells [5] = molecular target: T2, human TIM-3 on cells; assay: flow cytometry, human CD14+ monocytes donor3
# Source text: as §3, §4
# [6] = molecular target: T4, huFc fused dimeric human Tim3-ECD (human, UniProt Q8TDQ0 22-202); assay: SPR Biacore, bivalent Tim3
# T4 construct: also called huTim3Fc; bivalent Tim3
# Procedure: (§5) Therefore, an anti-mouse IgG was immobilized by amine coupling to the surface of a (Biacore) CM5 sensor chip. The samples were then captured and hu/cy Tim3-ECD was bound to them. The sensor chip surface was regenerated after each analysis cycle. The equilibrium constant KD was finally gained by fitting the data to a 1:1 langmuir interaction model.
# (§6) Flow cell temperature was set to 25° C. and sample compartment temperature to 12° C. The system was primed with running buffer. The samples were injected for 30 seconds with a concentration of 200 μg/ml and bound to the spots 1 and 5 of each flow cell, allowing the measurement of eight samples in parallel. Then a complete set of different (monomeric cyno, monomeric human and huFc fused dimeric human Tim3-ECD) concentrations (s. Table X) was injected over each sample for 240 s followed by a dissociation time of 30/1800 s (s. Table 1). Each analysis cycle (sample capture, spot 1 and 5—Tim3 ECD injection) was then regenerated with a 30 seconds long injection of Glycine-HCl pH 1.7. The flow rate was set to 30 μl/min for the whole run. Finally, the double referenced data was fitted to a 1:1 langmuir interaction model with the Biacore B4000 Evaluation Software.
# [7] = molecular target: T4, huFc fused dimeric human Tim3-ECD; assay: SPR Biacore, antibody captured by anti-mouse IgG
# Procedure: as §5, §6
# monomeric human Tim3-ECD [8] = molecular target: T5, monomeric human Tim3-ECD (human, UniProt Q8TDQ0 22-202); assay: SPR Biacore, antibody captured by anti-mouse IgG
# T5 construct: also called huTim3
# Procedure: as §5, §6
# human TIM-3 on cells [9] = molecular target: T2, human TIM-3 on cells; assay: cell-based or functional assay
# human TIM-3 on cells [10] = molecular target: T2, human TIM-3 on cells; assay: cell-based or functional assay; remark: listed apart in the source
# monomeric human Tim3-ECD [11] = molecular target: T5, monomeric human Tim3-ECD; assay: SPR Biacore, monovalent Tim3
# Procedure: as §5, §6
# [12] = molecular target: T1, cynomolgus TIM-3 on isolated cyno CD14+ …; assay: flow cytometry, cyno CD14+ monocytes cyno2
# Source text: as §1, §2
# [13] = molecular target: T1, cynomolgus TIM-3 on isolated cyno CD14+ …; assay: flow cytometry, cyno CD14+ monocytes cyno1
# Source text: as §1, §2
# [14] = molecular target: T6, human FolR2 on transiently transfected HEK cells (human, UniProt P14207 17-230); assay: flow cytometry on HEK cells transiently transfected with human FolR2, anti-human secondary antibody; concentration not given
# T6 sequence (P14207 17-230 limits assumed): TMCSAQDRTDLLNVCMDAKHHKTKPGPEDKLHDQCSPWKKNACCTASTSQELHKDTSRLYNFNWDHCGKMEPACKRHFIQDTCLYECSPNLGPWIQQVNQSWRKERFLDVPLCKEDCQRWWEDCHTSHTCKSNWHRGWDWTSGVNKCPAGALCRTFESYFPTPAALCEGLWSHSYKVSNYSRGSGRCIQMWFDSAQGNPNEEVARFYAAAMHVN
# human FolR1 on cells [15] = molecular target: T7, human FolR1 on cells (human, UniProt P15328 25-234); assay: flow cytometry on HeLa cells (human FolR1), fluorescently labeled anti-human secondary antibody
# T7 construct: also called FolR1 on HeLa, SKOV3, HT-29 tumor cells; HEK cells transfected with human FolR1
# T7 sequence (P15328 25-234 limits assumed): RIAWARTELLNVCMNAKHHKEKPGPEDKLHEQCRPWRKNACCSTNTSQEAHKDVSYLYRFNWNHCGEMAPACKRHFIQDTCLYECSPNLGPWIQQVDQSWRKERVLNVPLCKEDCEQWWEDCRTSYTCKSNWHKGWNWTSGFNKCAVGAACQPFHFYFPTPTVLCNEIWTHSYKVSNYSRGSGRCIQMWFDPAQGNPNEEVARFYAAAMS
# Procedure: (§7) Binding of newly generated FolR1 binders to FolR1 expressed on HeLa cells were determined by flow cytometry. Bound antibodies were detected with a fluorescently labeled anti-human secondary antibody.
# (§8) The identified binders were converted into a human IgG1 format and binding to FolR1 high expressing HeLa cells was addressed.
# [16] = molecular target: T8, cynomolgus FolR1 on transiently transfected HEK cells (cynomolgus, UniProt P15328 25-234 (human entry)); assay: flow cytometry on HEK cells transiently transfected with cyno FolR1, anti-human secondary antibody
# T8 construct: also called cyno FolR1; cyFoLR1
# T8 sequence (P15328 other isoform, or with tags, fused parts or gaps limits assumed): as the sequence (P15328 25-234 limits assumed) above, with I2T, W4R, R37K, Q117R, A146P, H171Y counted along it
# Source text: Cross-reactivity of the FolR1 antibodies to cyno FolR1 was addressed on HEK cells transiently transfected with cyFolR1 by flow cytometry. The antibodies were detected with a fluorescently labeled anti-human secondary antibody.
# In parallel cross-reactivity of the FolR1 clones to cyno FolR1 was addressed by performing binding studies to HEK cells transiently transfected with cyno FolR1.
# [17] = molecular target: T9, human FolR2 ECD-AcTev-Fcknob-Avi tag + Fc hole, biotinylated monomeric Fc fusion (human, UniProt P0DOX5 223-449 = IgG part); assay: SPR, IgG single injection
# T9 construct: also called huFolR2; FolR2-Fc
# [18] = molecular target: T10, human FolR3 ECD-AcTev-Fcknob-Avi tag + Fc hole, biotinylated monomeric Fc fusion (human, UniProt P0DOX5 223-449 = IgG part); assay: SPR, IgG single injection
# T10 construct: also called huFolR3; FolR3-Fc
# [19] = molecular target: T11, murine FolR1 ECD-AcTev-Fcknob-Avitag + Fc hole, biotinylated monomeric Fc fusion (murine, UniProt P0DOX5 223-449 = IgG part); assay: SPR, IgG single injection
# T11 construct: also called muFolR1; murine FolR1-Fc
# [20] = molecular target: T12, cynomolgus FolR1 ECD-AcTev-Fcknob-Avi tag + Fc hole, biotinylated monomeric Fc fusion (cynomolgus, UniProt P0DOX5 223-449 = IgG part); assay: SPR, apparent KD, bivalent binding (avidity)
# T12 construct: also called cyFolR1; cyno FolR1-Fc
# Procedure: (§9) Binding of FolR1 binders as IgG or in the T-cell bispecific format to different recombinant folate receptors (human FolR1, 2 and 3, murine FolR1 and cynomolgus FolR1; all as Fc fusions) was assessed by surface plasmon resonance (SPR).
# (§10) Recombinant biotinylated monomeric Fc fusions of human, cynomolgus and murine Folate Receptor 1 (FolR1-Fc) were directly coupled on a SA chip using the standard coupling instruction (Biacore, Freiburg/Germany). The immobilization level was about 300-400 RU. The anti-FolR1 IgGs or T cell bispecifics were passed at a concentration range from 2.1 to 500 nM with a flow of 30 μL/minutes through the flow cells over 180 seconds. The dissociation was monitored for 600 seconds. Bulk refractive index differences were corrected for by subtracting the response obtained on reference flow cell immobilized with recombinant biotinylated IL2 receptor Fc fusion. […] The binding curves resulting from the bivalent binding of the IgGs or T cell bispecifics were approximated to a 1:1 Langmuir binding and fitted with that model (which is not correct, but gives an idea of the avidity). The apparent avidity constants for the interactions were derived from the rate constants of the fitting using the Bia Evaluation software (GE Healthcare).
# [21] = molecular target: T13, human FolR1 ECD-AcTev-Fcknob-Avi tag + Fc hole, biotinylated monomeric Fc fusion (human, UniProt P0DOX5 223-449 = IgG part); assay: SPR, apparent KD, bivalent binding (avidity)
# T13 construct: also called huFolR1; huFolR1-Fc
# Procedure: as §9, §10
# [22] = molecular target: T11, murine FolR1 ECD-AcTev-Fcknob-Avitag + …; assay: SPR, apparent KD, bivalent binding (avidity)
# Procedure: as §9, §10
# [23] = molecular target: T12, cynomolgus FolR1 ECD-AcTev-Fcknob-Avi …; assay: SPR, bivalent binding (avidity), antigen on SA chip
# Procedure: as §9, §10
# [24] = molecular target: T13, human FolR1 ECD-AcTev-Fcknob-Avi tag + …; assay: as above
# Procedure: as §9, §10
# [25] = molecular target: T11, murine FolR1 ECD-AcTev-Fcknob-Avitag + …; assay: as above
# Procedure: as §9, §10
# [26] = molecular target: T12, cynomolgus FolR1 ECD-AcTev-Fcknob-Avi …; assay: SPR, monovalent, antibody captured by anti-Fab
# Procedure: as §9
# (§11) For affinity measurement, direct coupling of around 6000-7000 resonance units (RU) of the anti-human Fab specific antibody (Fab capture kit, GE Healthcare) was performed on a CM5 chip at pH5.0 using the standard amine coupling kit (GE Healthcare). Anti-FolR1 IgGs or T cell bispecifics were captured at 20 nM with a flow rate of 10 μl/min for 20 or 40 sec, the reference flow cell was left without capture. […] The dissociation phase was monitored for 240 sand triggered by switching from the sample solution to HBS-EP. The chip surface was regenerated after every cycle using a double injection of 60 sec 10 mM Glycine-HCl pH 2.1 or pH1.5. Bulk refractive index differences were corrected for by subtracting the response obtained on the reference flow cell 1. The affinity constants for the interactions were derived from the rate constants by fitting to a 1:1 Langmuir binding using the Bia Evaluation software (GE Healthcare).
# [27] = molecular target: T13, human FolR1 ECD-AcTev-Fcknob-Avi tag + …; assay: SPR, monovalent, antibody captured by anti-Fab
# Procedure: as §9, §11
# human FolR1 on cells [28] = molecular target: T7, human FolR1 on cells; assay: flow cytometry on HeLa cells (human FolR1), fluorescently labeled anti-human secondary antibody; remark: listed apart in the source
# Procedure: as §7, §8
# [29] = molecular target: T6, human FolR2 on transiently transfected …; assay: flow cytometry on HEK cells transiently transfected with human FolR2, anti-human secondary antibody; concentration not given; remark: listed apart in the source
# human FolR1 on cells [30] = molecular target: T7, human FolR1 on cells; assay: flow cytometry on HEK cells transiently transfected with human FolR1, anti-human secondary antibody; concentration not given
# human FolR1 on cells [31] = molecular target: T7, human FolR1 on cells; assay: flow cytometry on HeLa cells (human FolR1), fluorescently labeled anti-human secondary antibody; remark: listed apart in the source
# Procedure: as §7, §8
# [32] = molecular target: T12, cynomolgus FolR1 ECD-AcTev-Fcknob-Avi …; assay: SPR, IgG single injection
# [33] = molecular target: T13, human FolR1 ECD-AcTev-Fcknob-Avi tag + …; assay: SPR, IgG single injection
binder,measurement,setting,value
B1,MFI,[1],197 MFI
same,specific binding MFI,human TIM-3 on cells [2],1020 MFI
same,specific binding MFI,human TIM-3 on cells [3],1660 MFI
same,EC50,Tim3-ECD-His-Biotin,0.047 µg/mL
same,EC50,human TIM-3 on cells [4],0.069 µg/mL
same,specific binding MFI,human TIM-3 on cells [5],900 MFI
same,Kd,[6],1.5 nM
same,Kd,[7],1.52 nM
same,Kd,monomeric human Tim3-ECD [8],6.23 nM
same,"IFN-gamma release in MLR at 1 µg/ml, % of IL-2 control",human TIM-3 on cells [9],18%
same,"IFN-gamma release in MLR at 10 µg/ml, % of IL-2 control",human TIM-3 on cells [9],16%
same,"IFN-gamma release in MLR at 40 µg/ml, % of IL-2 control",human TIM-3 on cells [9],25%
same,"IC50 cytotoxicity (anti-mFc Fab-PE24 sandwich), RPMI-8226",human TIM-3 on cells [10],> 64 nM
same,Kd,monomeric human Tim3-ECD [11],6.2 nM
same,MFI,[12],184 MFI
same,MFI,[13],137 MFI
B2,binding result,[14],no binding
same,binding result,human FolR1 on cells [15],binds
same,binding result,[16],binds
same,binding result,[17],no binding (tested: 500 nM)
same,binding result,[18],no binding (tested: 500 nM)
same,binding result,[19],no binding (tested: 500 nM)
B3,binding result,[14],no binding
same,binding result,human FolR1 on cells [15],binds
same,Kd,[20],5.31 nM
same,Kd,[21],5.74 nM
same,Kd,[22],1.63 nM
same,koff,[23],0.016 s⁻¹
same,kon,[23],3.02e+06 M⁻¹ s⁻¹
same,koff,[24],0.0151 s⁻¹
same,kon,[24],2.62e+06 M⁻¹ s⁻¹
same,koff,[25],0.000603 s⁻¹
same,kon,[25],370000 M⁻¹ s⁻¹
same,binding result,[16],binds
same,binding result,[17],no binding (tested: 500 nM)
same,binding result,[18],no binding (tested: 500 nM)
B4,Kd,[26],0.65 nM
same,koff,[26],0.000193 s⁻¹
same,kon,[26],297000 M⁻¹ s⁻¹
same,Kd,[27],0.55 nM
same,koff,[27],0.000159 s⁻¹
same,kon,[27],289000 M⁻¹ s⁻¹
same,EC50 (read off the curve),human FolR1 on cells [28],~1 µg/mL
same,Kd,[20],0.108 nM
same,Kd,[21],0.14 nM
same,koff,[23],0.000139 s⁻¹
same,kon,[23],1.29e+06 M⁻¹ s⁻¹
same,koff,[24],0.000121 s⁻¹
same,kon,[24],861000 M⁻¹ s⁻¹
B5,EC50 (read off the curve),human FolR1 on cells [28],~2 µg/mL
same,binding result,[29],binds
B6,binding result,human FolR1 on cells [30],binds
same,binding result,[29],binds
B7,binding result,human FolR1 on cells [31],binds
same,binding result,[32],no binding (tested: 500 nM)
same,binding result,[33],no binding (tested: 500 nM)
same,binding result,[17],no binding (tested: 500 nM)
same,binding result,[18],no binding (tested: 500 nM)
